This assay has as its target Rpa1 (yeast), the large subunit of the replication protein A (RPA) complex (S. cerevisiae (endogenous in yeast …, UniProt P22336 1-621)). Nature of the assay: cell-based or functional assay.

These results are taken from article PMC5966407, “Distinct roles of XPF-ERCC1 and Rad1-Rad10-Saw1 in replication-coupled and uncoupled inter-strand crosslink repair” (Nature Communications, 2018).

Chain of Rpa1 (yeast), the large subunit of the replication protein A (RPA) complex (S. cerevisiae (P22336 whole entry, one chain of several): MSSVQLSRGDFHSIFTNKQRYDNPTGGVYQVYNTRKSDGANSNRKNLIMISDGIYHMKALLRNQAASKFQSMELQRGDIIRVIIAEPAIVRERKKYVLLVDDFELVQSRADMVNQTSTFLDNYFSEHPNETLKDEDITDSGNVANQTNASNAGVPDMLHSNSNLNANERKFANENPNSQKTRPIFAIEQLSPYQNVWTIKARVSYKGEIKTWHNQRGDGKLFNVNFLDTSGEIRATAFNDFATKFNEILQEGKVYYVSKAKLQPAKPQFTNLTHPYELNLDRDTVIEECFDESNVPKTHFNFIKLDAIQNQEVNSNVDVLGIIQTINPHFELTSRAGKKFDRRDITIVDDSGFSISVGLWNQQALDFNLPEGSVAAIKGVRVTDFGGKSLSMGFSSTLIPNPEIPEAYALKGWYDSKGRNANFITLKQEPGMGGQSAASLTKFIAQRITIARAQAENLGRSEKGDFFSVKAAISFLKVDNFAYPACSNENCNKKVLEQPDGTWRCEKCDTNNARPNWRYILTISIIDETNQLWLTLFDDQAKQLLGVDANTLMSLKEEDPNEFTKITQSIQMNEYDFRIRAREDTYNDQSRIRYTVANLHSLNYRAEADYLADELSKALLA

B1: His-Rad1 (natural protein, S. cerevisiae, UniProt P06777 1-1100, looked up)
chain: MSQLFYQGDSDDELQEELTRQTTQASQSSKIKNEDEPDDSNHLNEVENEDSKVLDDDAVLYPLIPNEPDDIETSKPNINDIRPVDIQLTLPLPFQQKVVENSLITEDALIIMGKGLGLLDIVANLLHVLATPTSINGQLKRALVLVLNAKPIDNVRIKEALEELSWFSNTGKDDDDTAVESDDELFERPFNVVTADSLSIEKRRKLYISGGILSITSRILIVDLLSGIVHPNRVTGMLVLNADSLRHNSNESFILEIYRSKNTWGFIKAFSEAPETFVMEFSPLRTKMKELRLKNVLLWPRFRVEVSSCLNATNKTSHNKVIEVKVSLTNSMSQIQFGLMECLKKCIAELSRKNPELALDWWNMENVLDINFIRSIDSVMVPNWHRISYESKQLVKDIRFLRHLLKMLVTSDAVDFFGEIQLSLDANKPSVSRKYSESPWLLVDEAQLVISYAKKRIFYKNEYTLEENPKWEQLIHILHDISHERMTNHLQGPTLVACSDNLTCLELAKVLNASNKKRGVRQVLLNKLKWYRKQREETKKLVKEVQSQDTFPENATLNVSSTFSKEQVTTKRRRTRGASQVAAVEKLRNAGTNVDMEVVFEDHKLSEEIKKGSGDDLDDGQEENAANDSKIFEIQEQENEILIDDGDAEFDNGELEYVGDLPQHITTHFNKDLWAEHCNEYEYVDRQDEILISTFKSLNDNCSLQEMMPSYIIMFEPDISFIRQIEVYKAIVKDLQPKVYFMYYGESIEEQSHLTAIKREKDAFTKLIRENANLSHHFETNEDLSHYKNLAERKLKLSKLRKSNTRNAGGQQGFHNLTQDVVIVDTREFNASLPGLLYRYGIRVIPCMLTVGDYVITPDICLERKSISDLIGSLQNNRLANQCKKMLKYYAYPTLLIEFDEGQSFSLEPFSERRNYKNKDISTVHPISSKLSQDEIQLKLAKLVLRFPTLKIIWSSSPLQTVNIILELKLGREQPDPSNAVILGTNKVRSDFNSTAKGLKDGDNESKFKRLLNVPGVSKIDYFNLRKKIKSFNKLQKLSWNEINELINDEDLTDRIYYFLRTEKEEQEQESTDENLESPGKTTDDNALHDHHNDVPEAPV
B1: the “3′ flap cleavage by purified His-Rad1–Rad10 (200 nM) in the presence of purified yeast RPA (80 nM), in vitro endonuclease assay” value is around 2 fold.
